Key:
[1] = biological target: the molecule itself; experiment: single-molecule TIRF microscopy, kinetics
[2] = biological target: the molecule itself; experiment: single-molecule TIRF microscopy with step-photobleaching and intensity counting
[3] = biological target: the molecule itself; experiment: single-molecule TIRF microscopy, real-time dissociation

B1: cytosolic domain of Synaptotagmin-1 (Syt-1), residues 79 to 421, wild type (domain or fragment, rat, UniProt P21707 79-421, looked up)
chain: CKKSLFKKKNKKKGKEKGGKNAINMKDVKDLGKTMKDQALKDDDAETGLTDGEEKEEPKEEEKLGKLQYSLDYDFQNNQLLVGIIQAAELPALDMGGTSDPYVKVFLLPDKKKKFETKVHRKTLNPVFNEQFTFKVPYSELGGKTLVMAVYDFDRFSKHDIIGEFKVPMNTVDFGHVTEEWRDLQSAEKEEQEKLGDIAFSLRYVPTAGKLTVVILEAKNLKKMDVGGLSDPYVKIHLMQNGKRLKKKKTTIKKNTLNPYYNESFSFEVPFEQIQKVQVVVTVLDYDKIGKNDAIGKVFVGYNSTGAELRHWSDMLANPRRPIAQWHTLQVEEEVDAMLAVKK
modifications: AlexaFluor 647 maleimide or AlexaFluor 488 maleimide on Cys79
For B1, the “KD of the large clusters” value [1] was 6 ± 2 nM, the “KD of the small clusters” value [1] was 40 ± 8 nM and the “stoichiometry N” value [2] was 5 ± 2 copies. It also gave a koff [3] of 0.0024 ± 0.0004 s⁻¹.

B2: cytosolic domain (residues 79 to 421) of the Syt-1 F349A mutant (domain or fragment, rat, UniProt P21707 79-421, looked up)
chain: CKKSLFKKKNKKKGKEKGGKNAINMKDVKDLGKTMKDQALKDDDAETGLTDGEEKEEPKEEEKLGKLQYSLDYDFQNNQLLVGIIQAAELPALDMGGTSDPYVKVFLLPDKKKKFETKVHRKTLNPVFNEQFTFKVPYSELGGKTLVMAVYDFDRFSKHDIIGEFKVPMNTVDFGHVTEEWRDLQSAEKEEQEKLGDIAFSLRYVPTAGKLTVVILEAKNLKKMDVGGLSDPYVKIHLMQNGKRLKKKKTTIKKNTLNPYYNESFSFEVPAEQIQKVQVVVTVLDYDKIGKNDAIGKVFVGYNSTGAELRHWSDMLANPRRPIAQWHTLQVEEEVDAMLAVKK
modifications: AlexaFluor 647 maleimide or AlexaFluor 488 maleimide on Cys79
B2 gave a Kd [1] of 45 ± 15 nM and a koff [3] of 0.0017 ± 0.0003 s⁻¹.

Reference: publication PMC11615320 (Communications Biology, 2024)
